In US20070054863A1 (SANFORD BURNHAM MEDICAL RESEARCH INSTITUTE, published 2007):
[ ]: non-standard residue; d: D form. The star is where a group is joined. FITC = O=C1OC2(c3ccc(O)cc3Oc3cc(O)ccc32)c2ccc(NC(=S)*)cc21; Ahx = NCCCCCC(=O)O

Key:
[1] = molecular target: T1, GST-Bcl-2 (UniProt P08515 1-218 = GST; P10415 1-218); assay: fluorescence polarization competition
T1 construct: Bacterially expressed, purified GST fusion used in FP, CD and in vitro immunoprecipitation; also called purified GST-Bcl-2 protein; bacterially expressed Bcl-2
Experimental: (§1) Fluorescence polarization (FP) analysis was used to determine whether NuBCPs interacted directly with Bcl-2. […] GST-Bcl-2, but not GST-Bcl-XL or GST, induced a concentration-dependent FP of FITC-NuBCP-9-r8 and FITC-D-NuBCP-9-r8, while FITC-NuBCP-9/AA-r8 was little affected (FIG. 2C-E). […] Thus, NuBCP-9 and D-NuBCP-9 bind directly and competitively to Bcl-2.
(§2) Fluorescence polarization (FP) assays. GST-Bcl-2, GST-Bcl-XL, or GST protein was briefly incubated with FITC-conjugated peptide with or without competitors in Greiner Fluotrac 600 96-well microplates. Fluorescence polarization was recorded using an Analyst HT 96-384 microplate reader (Molecular Devices, Sunnyvale, Calif.) with excitation wavelength set at 485 nm and dynamic polarizer for emission at 530 nm.

[2] = molecular target: T2, Bcl-2 (UniProt P10415 1-239); assay: immunoprecipitation
T2 construct: Cellular Bcl-2 in co-immunoprecipitation and immunostaining assays; also called endogenous Bcl-2

[3] = molecular target: T2, Bcl-2; assay: not described at this place
[4] = molecular target: T3, Nur77 (Homo sapiens (Human), UniProt P22736 1-598); assay: not described
T3 construct: also called TR3; NGFI-B

[5] = molecular target: T4, GST-Bcl-XL (UniProt P08515 1-218 = GST; Q07817 1-211); assay: fluorescence polarization
T4 construct: Control protein in FP and CD assays
Experimental: as §1, §2

[6] = molecular target: T5, GST (UniProt P08515 1-218 = GST); assay: fluorescence polarization
T5 construct: Control protein in FP and CD assays; also called GST protein
Experimental: as §1, §2

[7] = molecular target: T1, GST-Bcl-2; assay: circular dichroism of GST-Bcl-2 with peptide, non-linear regression, one-site-binding model
Experimental: We then explored whether the Bcl-2 conformational change by Bcl-2 was a direct consequence of Nur77 binding. Experiments were performed to determine whether NuBCPs could induce a conformational change of bacterially expressed Bcl-2. To this end, the ability of purified GST-Bcl-2 protein to react with anti-Bcl-2/BH3 antibody in the presence of NuBCP was analyzed by immunoprecipitation assay. […] In contrast, NuBCP-9, D-NuBCP-9 and NuBCP-9/AA had no effect on CD spectra for GST or Bcl-XL (FIGS. 9-11). Thus, the NuBCP-induced Bcl-2 conformational change observed in cells can be accounted for by direct binding of NuBCPs to Bcl-2.
Circular dichroism (CD) spectroscopy. Stock solutions of 3 mM peptide in 30% acetonitrile/water were added to 0.5 mL of 2 μM purified GST-proteins in PBS, pH 7.6. CD spectra were obtained in a 0.2 cm pathlength cell at 20° C. using an AVIV 62 DS spectropolarimeter for a wavelength range from 200 to 260 nm with a step size of 1 nm averaged for 5 sec. Three spectra were corrected for background and averaged for each sample. The Kd was determined using nonlinear regression analysis for a one-site-binding model (χ2>0.98). Stoichiometry was determined from a […] (Jones, G. et al. 2002 Tet. Let. 43 :6079-6082).

T2 sequence (P10415 whole entry): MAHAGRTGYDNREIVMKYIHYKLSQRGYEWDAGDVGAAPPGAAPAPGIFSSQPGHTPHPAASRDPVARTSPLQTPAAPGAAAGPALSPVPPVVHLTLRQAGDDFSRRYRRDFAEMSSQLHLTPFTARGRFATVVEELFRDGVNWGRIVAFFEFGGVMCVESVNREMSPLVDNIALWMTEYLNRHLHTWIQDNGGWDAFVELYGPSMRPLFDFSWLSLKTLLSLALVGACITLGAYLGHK
T1 sequence (P08515 1-218, tags or fused parts left off): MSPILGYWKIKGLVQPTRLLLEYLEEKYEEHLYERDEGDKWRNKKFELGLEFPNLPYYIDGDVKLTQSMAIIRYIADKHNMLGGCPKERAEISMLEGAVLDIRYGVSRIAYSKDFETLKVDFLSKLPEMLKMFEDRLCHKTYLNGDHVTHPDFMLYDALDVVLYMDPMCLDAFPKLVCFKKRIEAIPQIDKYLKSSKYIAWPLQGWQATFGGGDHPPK
T4 sequence (P08515 1-218, tags or fused parts left off): as above
T5 sequence (P08515 whole entry): as the sequence (P08515 1-218, tags or fused parts left off) above

Ac-ASRSLHSLA-NH2 (Unconjugated form) [NuBCP-9/AA (unconjugated)]
binding result [1]: no binding

B1: NuBCP-20-r8 (peptide)
peptide: GDWIDSILAFSRSLHSLLVDKKCXRRRRRRRR
modifications: not fully specified; N-terminal acetyl; C-terminal Cys thiol linked to chloroacetylated 6-aminohexanoyl (X); eight D-arginines (r8)
notes: also called NuBCP-20-r8-peptide; TR3 peptide
binding result [2]: binds

B2: Nur77 fragment DC-3 (other)
chain: GLVLHRLQCARGFGDWIDSILAFSRSLHSLLVDVPAFACLSALVLITDRHGLQEPRRVEELQNRIASCLKEHVAAVAGEPQPASCLSRLLGKLPELRTLCTQGLQRIFYLKLEDLVPPPPIIDKIFMDTLPF
binding result [3]: binds

B3: Bfl-1 (other, UniProt Q16548 1-175, looked up)
chain: MTDCEFGYIYRLAQDYLQCVLQIPQPGSGPSKTSRVLQNVAFSVQKEVEKNLKSCLDNVNVVSVDTARTLFNQVMEKEFEDGIINWGRIVTIFAFEGILIKKLLRQQIAPDVDTYKEISYFVAEFIMNNTGEWIRQNGGWENGFVKKFEPKSGWMTFLEVTGKICEMLSLLKQYC
binding result [4]: binds

B4: FITC-NuBCP-9-r8 (peptide)
peptide: {FITC}-FSRSLHSLLG[Ahx][dR][dR][dR][dR][dR][dR][dR][dR]-NH2
modifications: not fully specified
notes: The point of attachment of FITC is not described beyond the name; also called FITC-L-NuBCP-9-r8
binding result [5]: no binding
binding result [6]: no binding

Ac-FSRSLHSLL-NH2 [NuBCP-9 (unconjugated)]
Kd [7]: 2100 nM

B5: Bcl-B (other, UniProt Q9HD36 1-204, looked up)
chain: MVDQLRERTTMADPLRERTELLLADYLGYCAREPGTPEPAPSTPEAAVLRSAAARLRQIHRSFFSAYLGYPGNRFELVALMADSVLSDSPGPTWGRVVTLVTFAGTLLERGPLVTARWKKWGFQPRLKEQEGDVARDCQRLVALLSSRLMGQHRAWLQAQGGWDGFCHFFRTPFPLAFWRKQLVQAFLSCLLTTAFIYLWTRLL
binding result [4]: binds
